Reference: paper PMC4287381 (Virology, 2009)

Molecular target: GST-p53 C-terminal domain (residues 300–393) (human, UniProt P04637 300-393)
Experiment: pull-down

Sequence of GST-p53 C-terminal domain (residues 300–393) (P04637 300-393): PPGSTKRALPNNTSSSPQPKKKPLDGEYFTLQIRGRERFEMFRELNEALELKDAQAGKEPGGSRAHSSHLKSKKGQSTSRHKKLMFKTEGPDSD

B1: Full-length EBNA3C, in vitro translated, 35S-labelled (natural protein)
chain: MESFEGQGDSRQSPDNERGDNVQTTGEHDQDPGPGPPSSGASERLVPEESYSRDQQPWGQSRGDENRGWMQRIRRRRRRRAALSGHLLDTEDNVPPWLPPHDITPYTARNIRDAACRAVKQSHLQALSNLILDSGLDTQHILCFVMAARQRLQDIRRGPLVAEGGVGWRHWLLTSPSQSWPMGYRTATLRTLTPVPNRVGADSIMLTATFGCQNAARTLNTFSATVWTPPHAGPREQERYAREAEVRFLRGKWQRRYRRIYDLIELCGSLHHIWQNLLQTEENLLDFVRFMGVMSSCNNPAVNYWFHKTIGNFKPYYPWNAPPNENPYHARRGIKEHVIQNAFRKAQIQGLSMLATGGEPRGDATSETSSDEDTGRQGSDVELESSDDELPYIDPNMEPVQQRPVMFVSRVPAKKPRKLPWPTPKTHPVKRTNVKTSDRSDKAEAQSTPERPGPSEQSSVTVEPAHPTPVEMPMVILHQPPPVPKPVPVKPTPPPSRRRRGACVVYDDDVIEVIDVETTEDSSSVSQPNKPHRKHQDGFQRSGRRQKRAAPPTVSPSDTGPPAVGPPAAGPPAAGPPAAGPPAAGPPAAGPPAAGPRILAPLSAGPPAAGPHIVTPPSARPRIMAPPVVRMFMRERQLPQSTGRKPQCFWEMRAGREITQMQQEPSSHLQSATQPTTPRPSWAPSVCALSVMDAGKAQPIESSHLSSMSPTQPISHEEQPRYEDPDAPLDLSLHPDVAAQPAPQAPYQGYQEPPAPQAPYQGYQEPPPPQAPYQGYQEPPAHGLQSSSYPGYAGPWTPRSQHPCYRHPWAPWSQDPVHGHTQGPWDPRAPHLPPQWDGSAGHGQDQVSQFPHLQSETGPPRLQLSLVPLVSSSAPSWSSPQPRAPIRPIPTRFPPPPMPLQDSMAVGCDSSGTACPSMPFASDYSQGAFTPLDINATTPKRPRVEESSHGPARCSQATAEAQEILSDNSEISVFPKDAKQTDYDASTESELD
modifications: 35S methionine label
fold interaction against the DNA binding domain of p53 (residues 100–300): 1.7 fold
